Laboratory results as given in patent US20260085338.

Biological target: T7 RNA polymerase, P00573
Sequence (P00573 whole entry): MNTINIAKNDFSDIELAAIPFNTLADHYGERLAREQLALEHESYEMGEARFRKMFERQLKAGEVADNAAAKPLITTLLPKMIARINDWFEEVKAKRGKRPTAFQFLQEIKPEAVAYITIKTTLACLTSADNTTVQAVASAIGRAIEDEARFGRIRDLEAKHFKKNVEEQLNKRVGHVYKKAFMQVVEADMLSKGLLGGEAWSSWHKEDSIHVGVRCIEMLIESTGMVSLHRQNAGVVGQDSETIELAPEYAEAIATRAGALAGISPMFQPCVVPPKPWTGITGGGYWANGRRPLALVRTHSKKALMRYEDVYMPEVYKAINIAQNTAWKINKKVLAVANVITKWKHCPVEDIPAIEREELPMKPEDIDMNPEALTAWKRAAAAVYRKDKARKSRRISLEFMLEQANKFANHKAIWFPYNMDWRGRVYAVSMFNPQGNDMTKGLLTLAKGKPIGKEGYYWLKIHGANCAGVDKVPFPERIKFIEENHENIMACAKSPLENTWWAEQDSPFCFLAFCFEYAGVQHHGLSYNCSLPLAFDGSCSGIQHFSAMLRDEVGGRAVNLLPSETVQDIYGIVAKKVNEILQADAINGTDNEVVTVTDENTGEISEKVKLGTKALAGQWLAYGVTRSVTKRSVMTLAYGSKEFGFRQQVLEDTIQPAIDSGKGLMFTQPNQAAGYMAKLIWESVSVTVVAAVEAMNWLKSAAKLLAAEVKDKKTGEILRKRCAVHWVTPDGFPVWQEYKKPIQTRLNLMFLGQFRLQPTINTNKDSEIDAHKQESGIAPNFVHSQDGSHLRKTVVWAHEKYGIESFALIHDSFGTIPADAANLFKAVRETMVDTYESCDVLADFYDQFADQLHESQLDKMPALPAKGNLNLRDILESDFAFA

B1: T7 lysozyme (protein)
chain: MARVQFKQRESTDAIFVHCSATKPSQNVGVREIRQWHKEQGWLDVGYHFIIKRDGTVEAGRDEMAVGSHAKGYNHNSIGVCLVGGIDDKGKFDANFTPAQMQSLRSLLVTLLAKYEGAVLRAHHEVAPKACPSFDLKRWWEKNELVTSDRG
Q: How did the “reduction of msfGFP output upon lysozyme induction (P. putida, 4 mM Rha)” value turn out when B1 was run?
A: Its value is “T7 (-79%)”.
